*1 amine or outer side, *2 acyl side, *3 side chain or, on linkers, in order; H or OH if unused. Bridges are numbered along the chain shown (N, C = ends). Where no end group is shown, it is not given here. [ ]: non-standard residue; d: D form. TATA = O=C(CC[*:1])N1CN(C(=O)CC[*:2])CN(C(=O)CC[*:3])C1; Lys(Me3) = C[N+](C)(C)CCCC[C@H](N)C(=O)O; Ala(cPent) = N[C@@H](CC1CCCC1)C(=O)O; Ala(cPr) = N[C@@H](CC1CC1)C(=O)O; Orn = NCCC[C@H](N)C(=O)O
Columns and labels:
[1] = target: T1, Biotinylated human TSLP (human, biotinylated); assay: SPR, biotinylated hTSLP on streptavidin chip
T1 construct: also called hTSLP; thymic stromal lymphopoietin
T1 sequence (chain, as listed by the source limits assumed): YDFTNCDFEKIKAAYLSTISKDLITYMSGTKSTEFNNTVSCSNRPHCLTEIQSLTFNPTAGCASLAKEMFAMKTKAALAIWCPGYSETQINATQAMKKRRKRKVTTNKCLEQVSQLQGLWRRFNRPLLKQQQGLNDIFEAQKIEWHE

[2] = target: TSLP (as used in the human PBMC assay) (UniProt Q969D9 29-159); assay: cell-based or functional assay

Binder	Kd [1]	CCL17 % Inhibition @ 10 µM, 50 pM TSLP [2]
CQWLEDCWRGXC (not fully specified; N-term acetyl; CQWLEDCWRG[3-MePhe]C as printed; 3 Cys on TATA) [Example 74]	91 nM	
Ac-CQW[Ala(cPent)]EDCWRGFC (linker 1-7-12 via TATA) [Example 65]	70 nM	
ACTWLDDCWRGFCA (linker 2-8-13 via TATA) [Example 76]	93 nM	
CQWLEDCWRGXC (not fully specified; N-term acetyl; CQWLEDCWRG[3,4diFPhe]C as printed; 3 Cys on TATA) [Example 22]	9.7 nM	
ACHWLEDCWRGFCHLE (linker 2-8-13 via TATA; not fully specified (C-terminus)) [Example 75]	92 nM	
CQWLQDCWXGXC (N-term acetyl; CQWLQDCW[ADMA]G[4-FPhe]C as printed; 3 Cys on TATA) [Example 20]	8.6 nM	
CWWLQDCWXGXC (not fully specified; N-term acetyl; CWWLQDCW[ADMA]G[4-FPhe]C as printed; 3 Cys on TATA) [Example 28]	12 nM	
CQWLEDCWXGXC (N-term acetyl; CQWLEDCW[4-PipA]G[4-FPhe]C as printed; 3 Cys on TATA) [Example 70]	80 nM	
SPPCVWLDDCWRGFCA (linker 4-10-15 via TATA) [Example 73]	85 nM	
CQWLEDCWRGXC (not fully specified; N-term acetyl; CQWLEDCWRG[3,4,5triFPhe]C as printed; 3 Cys on TATA) [Example 37]	19 nM	
CQXLEDCWRGXC (not fully specified; N-term acetyl; CQ[Nal1]LEDCWRG[4-FPhe]C as printed; 3 Cys on TATA) [Example 27]	12 nM	
Ac-CQWLEDCWRGFCAPDERD (linker 1-7-12 via TATA) [Example 54]	46 nM	
CQXLEDCXRGXC (not fully specified; N-term acetyl; CQ[5FTrp]LEDC[5FTrp]RG[4-FPhe]C as printed; 3 Cys on TATA) [Example 21]	9.2 nM	
SDEQRTCQWLEDCWRGFCA (linker 7-13-18 via TATA) [Example 61]	62 nM	
CQWLEDCWRGXC (not fully specified; Ac-CQWLEDCWRG[4-FPhe]C; 3 Cys cyclised with TATA) [Example 17]		1%
CQWLEDCWRGXC (not fully specified; N-term acetyl; CQWLEDCWRG[4-BrPhe]C as printed; 3 Cys on TATA) [Example 26]	11 nM	
ETNNLECQWLEDCWRGFCA (linker 7-13-18 via TATA) [Example 71]	82 nM	
CQWXEDCWRGXC (not fully specified; Ac-CQW[tBuA]EDCWRG[4-FPhe]C; 3 Cys cyclised with TATA) [Example 4]		47%
ACQWLEDCWRGFCDDAHAP (linker 2-8-13 via TATA) [Example 55]	47 nM	
ACTWLEDCWRGFCADS (linker 2-8-13 via TATA) [Example 63]	65 nM	
CQWLEDCXRGXC (N-term acetyl; CQWLEDC[4-ClNal]RG[4-FPhe]C as printed; 3 Cys on TATA) [Example 60]	62 nM	
Ac-ACQWLEDCWRGFCPLD (linker 2-8-13 via TATA; not fully specified (C-terminus)) [Example 53]	43 nM	
CQWLEDCWRGXC (not fully specified; N-term acetyl; CQWLEDCWRG[3-F,4-ClPhe]C as printed; 3 Cys on TATA) [Example 41]	24 nM	
Ac-CQW[Ala(cPr)]EDCWRGFC (linker 1-7-12 via TATA; not fully specified (C-terminus); printed as CQW[CproA]EDCWRGFC) [Example 80]	100 nM	
CQXLEDCWXGXC (not fully specified; N-term acetyl; CQ[Nal1]LEDCW[ADMA]G[4-FPhe]C as printed; 3 Cys on TATA) [Example 38]	20 nM	
CAXLEDCWXGXC (N-term acetyl; CA[Nal1]LEDCW[Harg]G[4-FPhe]C as printed; 3 Cys on TATA) [Example 62]	63 nM	
CQWLEDCWRGXC (N-term acetyl; CQWLEDCWRG[4-CF3Phe]C as printed; 3 Cys on TATA) [Example 77]	93 nM	

Results, then the binder that gave them:

Kd [1]	CCL17 % Inhibition @ 10 µM, 50 pM TSLP [2]	Binder
940 nM		CQWXEDCWRGFC (N-term acetyl; CQW[M(O)]EDCWRGFC as printed; 3 Cys on TATA) [Example 147]
300 nM		C[Orn]ELDPWTCETWWLC (linker 1-9-15 via TATA) [Example 180]
5600 nM		CHWLENCWXGFC (not fully specified; N-term acetyl; CHWLENCW[Dap]GFC as printed; 3 Cys on TATA) [Example 159]
890 nM		ACESLDPWSCPVWWRCA (linker 2-10-16 via TATA; not fully specified (C-terminus)) [Example 161]
360 nM		CKELDPWTCETWWLC (linker 1-9-15 via TATA) [Example 179]
310 nM		CQELDPWTCETWWLC (linker 1-9-15 via TATA) [Example 181]
290 nM		ACDWDWEYDCWLHCA (linker 2-10-14 via TATA) [Example 198]
290 nM		CTELDXWTCETWWLC (CTELD[5-Ph-P]WTCETWWLC as printed; 3 Cys on TATA) [Example 194]
3200 nM		CQWLEDCWXGFC (not fully specified; N-term acetyl; CQWLEDCW[Dap]GFC as printed; 3 Cys on TATA) [Example 155]
72 nM		SHVCRDLDPWTCDSWWLCA (linker 4-12-18 via TATA) [Example 188]
290 nM		ACTDLDPWTCNSWWLCAGD (linker 2-10-16 via TATA; not fully specified (C-terminus)) [Example 169]
1300 nM		CTELDXWTCETWWLC (CTELD[diF-P]WTCETWWLC as printed; 3 Cys on TATA) [Example 182]
300 nM		ACRDLDPWTCSSWWLCSSDTTDA (linker 2-10-16 via TATA) [Example 176]
170 nM		ACRDLDPWTCEEWWLCAHP (linker 2-10-16 via TATA) [Example 170]
310 nM		RDLCTDLDPWTCPDWWLCA (linker 4-12-18 via TATA) [Example 189]
50 nM		ACRDLDPWTCSSWWLCADGLYDA (linker 2-10-16 via TATA) [Example 193]
86 nM		RAPCPDLDPWTCSDWWLCA (linker 4-12-18 via TATA) [Example 187]

Kd [1]	CCL17 % Inhibition @ 10 µM, 50 pM TSLP [2]	Binder
580 nM		ACRDLDPWTCSSWWLCKPDHVDA (linker 2-10-16 via TATA) [Example 177]
170 nM		ACKDLDPWTCSSWWECAPN (linker 2-10-16 via TATA; not fully specified (C-terminus)) [Example 167]
3300 nM		CQWLEDCWXGFC (not fully specified; CQWLEDCW[Dap]GFC as printed; 3 Cys on TATA) [Example 156]
240 nM		ACRDLDPWTCSSWWLCSESVHTA (linker 2-10-16 via TATA) [Example 175]
230 nM		ACTELDPWTCETWWLCA (linker 2-10-16 via TATA; not fully specified (C-terminus)) [Example 163]
1100 nM		Ac-CQWLEDCWAGFC (linker 1-7-12 via TATA) [Example 149]
100 nM		Ac-CQWLEDCW[Lys(Me3)]GFC (linker 1-7-12 via TATA; not fully specified (C-terminus)) [Example 81]
81 nM		RVNTHQCRDLDPWTCSSWWLCA (linker 7-15-21 via TATA) [Example 190]
460 nM		ACDWVWEYDCWLPCA (linker 2-10-14 via TATA) [Example 197]
15000 nM		CTELDXWTCETWWLC (CTELD[Chx-P]WTCETWWLC as printed; 3 Cys on TATA) [Example 195]
290 nM		ACRDLDPWTCPTWWTCYDE (linker 2-10-16 via TATA; not fully specified (C-terminus)) [Example 168]
6100 nM		ACDWQWSYDCWLPCA (linker 2-10-14 via TATA) [Example 196]
30 nM		AHPCADLDPWTCPNWWLCA (linker 4-12-18 via TATA; not fully specified (C-terminus)) [Example 165]
330 nM		ACVDLDPWSCEDWWLCA (linker 2-10-16 via TATA) [Example 183]
68 nM		DHDCTWNWEYDCWLDCA (linker 4-12-16 via TATA) [Example 200]
81 nM		ACDWHWEYDCWLSCA (linker 2-10-14 via TATA) [Example 199]

From patent publication US20220363718A1 (Bicycle, published 2022)
